Target: SARS-CoV-2 RBD fused with SD1 (SARS-CoV-2, Wuhan-Hu-1 type, UniProt P0DTC2)
Assay: ELISA

B1: mAb 2-4 (antibody, V domains shown)
VH: QVQLVQSGAEVKKPGASVKVSCKASGYTFTGYYMHWVRQAPGQGLEWMGWINPNSGGTNYTQMFQGRVTMTRDTSISTAYMEVSRLRSDDTAVYYCARDRSWAVVYYYMDVWGKGTTVTVSS
VL: QSALTQPPSASGSPGQSVTISCTGTSSDVGGYNYVSWYQQHPGKAPKLMIYEVSKRPSGVPDRFSGSKSGNTASLTVSGLQAEDEADYYCSSYAGSNNLVFGGGTKLTVL
binding result: binds
